Results reported in patent US20170233492A1 (PHARMABCINE, published 2017).

Key:
[1] = target: T1, Recombinant human HGF R/c-Met Fc chimera (R&D systems, cat no. 358-MT/CF) (human, UniProt P08581 25-932); assay: phage ELISA, c-Met 100 ng coated, anti-M13-HRP detection, A450
T1 construct: Bought reagent; also called human c-Met-Fc; human-c-Met; not shown: Fc part of the purchased chimera

[2] = target: T1, Recombinant human HGF R/c-Met Fc …; assay: SPR (BIAcore), human c-Met-Fc immobilized on chip, antibody flowed; koff/kon
Experimental: (§1) The binding capacity to c-Met of the antibody was measured by BIAcore (GE Healthcare). According to the manufacturer's manual, sensorgrams were secured by immobilizing mouse-c-Met and human-c-Met (R&D system) on a CMS chip (GE Healthcare, Sweden), and flowing various amounts of antibodies. Rate constants kon and koff were measured on the basis of the sensorgrams secured at each concentration, and Kd was calculated from the ratio of rate constants (koff/kon) (Table 3). As a result, 1E4-IgG had high binding capacity with mouse-c-Met as well as binding capacity with human-c-Met (FIG. 8).

mouse c-Met-Fc [3] = target: T2, mouse c-Met-Fc (mouse, UniProt P16056 25-931, limits assumed); assay: SPR (BIAcore), mouse c-Met-Fc immobilized on chip, antibody flowed; koff/kon
T2 construct: Bought reagent (R&D system); also called mouse-c-Met (R&D system); not shown: Fc part
Experimental: as §1

mouse c-Met-Fc [4] = target: T2, mouse c-Met-Fc; assay: SPR (BIAcore), mouse c-Met-Fc immobilized on chip, antibody flowed
Experimental: as §1

[5] = target: T1, Recombinant human HGF R/c-Met Fc …; assay: SPR (BIAcore), human c-Met-Fc immobilized on chip, antibody flowed
Experimental: as §1

T1 sequence (P08581 25-932, change not shown): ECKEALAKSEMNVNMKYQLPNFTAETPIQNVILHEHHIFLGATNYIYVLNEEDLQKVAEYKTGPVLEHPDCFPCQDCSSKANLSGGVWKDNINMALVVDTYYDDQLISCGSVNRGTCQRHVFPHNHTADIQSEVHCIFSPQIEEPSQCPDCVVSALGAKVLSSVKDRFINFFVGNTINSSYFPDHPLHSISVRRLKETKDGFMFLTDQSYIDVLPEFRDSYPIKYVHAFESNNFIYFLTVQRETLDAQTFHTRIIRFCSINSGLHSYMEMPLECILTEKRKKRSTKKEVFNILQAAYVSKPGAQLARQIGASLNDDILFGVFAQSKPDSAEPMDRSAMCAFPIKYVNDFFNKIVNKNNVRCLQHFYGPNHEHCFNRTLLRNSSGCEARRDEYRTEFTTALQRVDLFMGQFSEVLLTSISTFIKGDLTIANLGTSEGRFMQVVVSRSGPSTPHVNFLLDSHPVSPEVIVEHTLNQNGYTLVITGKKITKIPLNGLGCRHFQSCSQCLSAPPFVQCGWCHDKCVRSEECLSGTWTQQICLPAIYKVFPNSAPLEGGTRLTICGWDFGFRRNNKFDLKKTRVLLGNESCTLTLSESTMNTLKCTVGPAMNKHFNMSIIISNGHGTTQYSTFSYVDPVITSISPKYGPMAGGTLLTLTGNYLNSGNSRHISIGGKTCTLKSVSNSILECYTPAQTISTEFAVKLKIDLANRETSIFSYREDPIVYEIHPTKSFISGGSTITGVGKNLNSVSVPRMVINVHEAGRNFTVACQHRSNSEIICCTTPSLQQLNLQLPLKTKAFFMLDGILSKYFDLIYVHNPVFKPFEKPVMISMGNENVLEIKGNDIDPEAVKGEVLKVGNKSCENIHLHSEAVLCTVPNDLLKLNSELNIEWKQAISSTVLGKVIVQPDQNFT
T2 sequence (P16056 25-931 limits assumed): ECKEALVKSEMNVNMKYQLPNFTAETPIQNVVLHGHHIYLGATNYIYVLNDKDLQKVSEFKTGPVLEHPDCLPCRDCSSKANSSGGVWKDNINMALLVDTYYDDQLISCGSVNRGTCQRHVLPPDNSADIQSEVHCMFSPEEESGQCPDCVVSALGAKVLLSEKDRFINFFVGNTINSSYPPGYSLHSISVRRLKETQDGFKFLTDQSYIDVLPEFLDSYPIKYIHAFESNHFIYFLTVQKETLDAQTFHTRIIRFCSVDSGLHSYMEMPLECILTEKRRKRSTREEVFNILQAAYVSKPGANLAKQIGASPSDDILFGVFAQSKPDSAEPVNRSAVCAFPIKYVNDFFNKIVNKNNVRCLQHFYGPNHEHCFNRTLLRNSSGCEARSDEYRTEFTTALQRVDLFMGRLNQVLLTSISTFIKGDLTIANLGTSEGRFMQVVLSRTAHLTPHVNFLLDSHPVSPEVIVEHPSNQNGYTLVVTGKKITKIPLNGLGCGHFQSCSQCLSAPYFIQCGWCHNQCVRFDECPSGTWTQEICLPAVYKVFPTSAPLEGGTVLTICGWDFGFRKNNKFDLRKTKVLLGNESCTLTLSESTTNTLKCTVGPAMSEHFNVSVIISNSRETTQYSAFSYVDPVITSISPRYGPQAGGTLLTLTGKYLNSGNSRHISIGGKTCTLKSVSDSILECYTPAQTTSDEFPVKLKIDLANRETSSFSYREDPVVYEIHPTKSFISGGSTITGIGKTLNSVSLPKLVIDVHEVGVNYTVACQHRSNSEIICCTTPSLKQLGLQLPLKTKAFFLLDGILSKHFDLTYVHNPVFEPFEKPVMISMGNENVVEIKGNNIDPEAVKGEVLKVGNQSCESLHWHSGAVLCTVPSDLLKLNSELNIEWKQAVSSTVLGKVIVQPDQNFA

binding result [1] | Kd [2] [nM] | Kd (mouse c-Met-Fc [3]) [nM] | koff (mouse c-Met-Fc [4]) [s⁻¹] | kon (mouse c-Met-Fc [4]) [M⁻¹ s⁻¹] | koff [5] [s⁻¹] | kon [5] [M⁻¹ s⁻¹] | Binder
binds | – | – | – | – | – | – | 1E4-ScFv (scFv, also called soluble 1E4-ScFv; not shown: tags implied by Ni-NTA purification and anti-Myc detection) scFv: QVQLVQSGAEVKKPGESLRISCQGSGYSFPTHWITWVRQMPGKGLEWMGTIDPTDSYNFYGPSFQGHVTISADSSSSTAYLQWSSLKASDTAMYYCARDGNYYDSRGYYYDTFDMWGQGTLVTVSSGLGGLGGGGSGGGGSGGSSGVGSDIQMTQSPSFLSASVGDRVTITCRASQGISTYLAWYQQKPGTAPKLLIYSASTLESGVPSRFSGSGSGTDFTLTISSLQPEDSATYYCQQADSFPLTFGGGTKVEIKRGGASLVE
– | 0.298 | 0.615 | 0.00159 | 2.58e+06 | 0.000807 | 2.71e+06 | 1E4-IgG (antibody, V domains shown, also called 1E4 antibody; anti-c-Met IgG (1E4-IgG)) VH: QVQLVQSGAEVKKPGESLRISCQGSGYSFPTHWITWVRQMPGKGLEWMGTIDPTDSYNFYGPSFQGHVTISADSSSSTAYLQWSSLKASDTAMYYCARDGNYYDSRGYYYDTFDMWGQGTLVTVSS VL: DIQMTQSPSFLSASVGDRVTITCRASQGISTYLAWYQQKPGTAPKLLIYSASTLESGVPSRFSGSGSGTDFTLTISSLQPEDSATYYCQQADSFPLTFGGGTKVEIKR
